In the Human Domainome abundance scans (Beltran et al. 2025) one finds abundance fitness data, which are given here for 57 variants.

± gives the uncertainty stated by the source.

The chains are these.
B1: Probable E3 ubiquitin-protein ligase MID2, residues 191 to 235; numbered along this chain, Q9UJV3 (parent)
chain: RGITCLDHENEKVNMYCVSDDQLICALCKLVGRHRDHQVASLNDR

The variants in the series derive from B1. The series is described as follows: abundance fitness (aPCA) (normalised: wild type 0, dead -1); higher = more abundant; growth selection in yeast, the domain comes from the species named. The following applies: Homo sapiens.
In the case of RGITCLDHENEKVNMYCVSDLQLICALCKLVGRHRDHQVASLNDR, the abundance fitness was -0.526 ± 0.067.
Next, RGITCLDHENEKVNMYCVSDHQLICALCKLVGRHRDHQVASLNDR: -0.283 ± 0.1; RGITCLDHENEKVNMYCVSDEQLICALCKLVGRHRDHQVASLNDR: -0.056 ± 0.06.
Next, RGITCLDHENEKVNMYCVSDIQLICALCKLVGRHRDHQVASLNDR: -0.951 ± 0.17; RGITCLDHENEKVNMYCVSDTQLICALCKLVGRHRDHQVASLNDR: -0.163 ± 0.057.
Next, RGITCLDHENEKVNMYCVSDKQLICALCKLVGRHRDHQVASLNDR: 0.011 ± 0.078.
Take RGITCLDHENEKVNMYCVSDQQLICALCKLVGRHRDHQVASLNDR: the abundance fitness is -0.132 ± 0.063.
Regarding RGITCLDHENEKVNMYCVSDSQLICALCKLVGRHRDHQVASLNDR, the abundance fitness was -0.088 ± 0.059.
As for RGITCLDHENEKVNMYCVSDYQLICALCKLVGRHRDHQVASLNDR, the abundance fitness is -0.527 ± 0.15.
As for RGITCLDHENEKVNMYCVSDAQLICALCKLVGRHRDHQVASLNDR, the abundance fitness is -0.081 ± 0.049.
Consider RGITCLDHENEKVNMYCVSDNQLICALCKLVGRHRDHQVASLNDR, for which the abundance fitness was determined as 0.031 ± 0.12.
With RGITCLDHENEKVNMYCVSDMQLICALCKLVGRHRDHQVASLNDR, the abundance fitness is -0.316 ± 0.067.
Next, RGITCLDHENEKVNMYCVSDVQLICALCKLVGRHRDHQVASLNDR: -0.585 ± 0.061.
Next, RGITCLDHENEKVNMYCVSDPQLICALCKLVGRHRDHQVASLNDR: -0.819 ± 0.11; RGITCLDHENEKVNMNCVSDDQLICALCKLVGRHRDHQVASLNDR: -0.251 ± 0.1; RGITCLDHENEKVNMTCVSDDQLICALCKLVGRHRDHQVASLNDR: -0.392 ± 0.08.
The result for RGITCLDHENEKVNMACVSDDQLICALCKLVGRHRDHQVASLNDR reads 0.077 ± 0.089; that for RGITCLDHENEKVNMRCVSDDQLICALCKLVGRHRDHQVASLNDR, 0.183 ± 0.05; that for RGITCLDHENEKVNMSCVSDDQLICALCKLVGRHRDHQVASLNDR, -0.178 ± 0.073.
Take RGITCLDHENEKVNMKCVSDDQLICALCKLVGRHRDHQVASLNDR: the abundance fitness was determined as 0.54 ± 0.27.
Regarding RGITCLDHENEKVNMGCVSDDQLICALCKLVGRHRDHQVASLNDR, the abundance fitness was found to be 0.024 ± 0.055.
In the case of RGITCLDHENEKVNMWCVSDDQLICALCKLVGRHRDHQVASLNDR, the abundance fitness was -0.039 ± 0.071.
For the variant RGITCLDHENEKVNMDCVSDDQLICALCKLVGRHRDHQVASLNDR, the abundance fitness is -0.067 ± 0.12.
The result for RGITCLDHENEKVNMQCVSDDQLICALCKLVGRHRDHQVASLNDR reads 0.236 ± 0.091.
On to RGITCLDHENEKVNMMCVSDDQLICALCKLVGRHRDHQVASLNDR, for which the abundance fitness is -0.321 ± 0.15.
The result for RGITCLDHENEKVNMPCVSDDQLICALCKLVGRHRDHQVASLNDR reads -0.065 ± 0.088; that for RGITCLDHENEKVNMCCVSDDQLICALCKLVGRHRDHQVASLNDR, -0.176 ± 0.14; that for RGITCLDHENEKVNMHCVSDDQLICALCKLVGRHRDHQVASLNDR, -0.114 ± 0.2.
The result for RGITCLDHENEKVNMVCVSDDQLICALCKLVGRHRDHQVASLNDR reads 0.023 ± 0.055; that for RGITCLDHENEKVNMLCVSDDQLICALCKLVGRHRDHQVASLNDR, -0.127 ± 0.063; that for RGITCLDHENEKVNMYCVSDDQDICALCKLVGRHRDHQVASLNDR, 0.064 ± 0.2.
As to RGITCLDHENEKVNMYCVSDDQCICALCKLVGRHRDHQVASLNDR, the abundance fitness was 0.049 ± 0.22.
For the variant RGITCLDHENEKVNMYGVSDDQLICALCKLVGRHRDHQVASLNDR, the abundance fitness is -0.129 ± 0.058.
As to RGITCLDHENEKVNMYWVSDDQLICALCKLVGRHRDHQVASLNDR, the abundance fitness is -0.792 ± 0.1.
Next, RGITCLDHENEKVNMYRVSDDQLICALCKLVGRHRDHQVASLNDR: -0.304 ± 0.068; RGITCLDHENEKVNMYSVSDDQLICALCKLVGRHRDHQVASLNDR: -0.157 ± 0.073; RGITCLDHENEKVNMYTVSDDQLICALCKLVGRHRDHQVASLNDR: -0.269 ± 0.072.
The result for RGITCLDHENEKVNMYMVSDDQLICALCKLVGRHRDHQVASLNDR reads -0.517 ± 0.1; that for RGITCLDHENEKVNMYYVSDDQLICALCKLVGRHRDHQVASLNDR, -0.635 ± 0.3; that for RGITCLDHENEKVNMYPVSDDQLICALCKLVGRHRDHQVASLNDR, -0.319 ± 0.14.
In the case of RGITCLDHENEKVNMYLVSDDQLICALCKLVGRHRDHQVASLNDR, the abundance fitness was -0.775 ± 0.13.
RGITCLDHENEKVNMYNVSDDQLICALCKLVGRHRDHQVASLNDR: the abundance fitness was -0.212 ± 0.1.
Next, RGITCLDHENEKVNMYEVSDDQLICALCKLVGRHRDHQVASLNDR: -0.163 ± 0.12; RGITCLDHENEKVNMYVVSDDQLICALCKLVGRHRDHQVASLNDR: -0.486 ± 0.087.
The result for RGITCLDHENEKVNMYKVSDDQLICALCKLVGRHRDHQVASLNDR reads -0.01 ± 0.35; that for RGITCLDHENEKVNMYQVSDDQLICALCKLVGRHRDHQVASLNDR, -0.369 ± 0.15.
Turning to RGITCLDHENEKVNMYCVSCDQLICALCKLVGRHRDHQVASLNDR, the abundance fitness is -0.178 ± 0.084.
On to RGITCLDHENEKVNMYCVSVDQLICALCKLVGRHRDHQVASLNDR, for which the abundance fitness is -1.03 ± 0.094.
As to RGITCLDHENEKVNMYCVSLDQLICALCKLVGRHRDHQVASLNDR, the abundance fitness was -1.08 ± 0.11.
Take RGITCLDHENEKVNMYCVSKDQLICALCKLVGRHRDHQVASLNDR: the abundance fitness is -0.357 ± 0.078.
The result for RGITCLDHENEKVNMYCVSMDQLICALCKLVGRHRDHQVASLNDR reads -1.19 ± 0.15.
The result for RGITCLDHENEKVNMYCVSADQLICALCKLVGRHRDHQVASLNDR reads -0.77 ± 0.071; that for RGITCLDHENEKVNMYCVSTDQLICALCKLVGRHRDHQVASLNDR, -0.706 ± 0.071; that for RGITCLDHENEKVNMYCVSGDQLICALCKLVGRHRDHQVASLNDR, -0.589 ± 0.049.
The result for RGITCLDHENEKVNMYCVSPDQLICALCKLVGRHRDHQVASLNDR reads -0.625 ± 0.085; that for RGITCLDHENEKVNMYCVSWDQLICALCKLVGRHRDHQVASLNDR, -0.809 ± 0.067; that for RGITCLDHENEKVNMYCVSEDQLICALCKLVGRHRDHQVASLNDR, -0.096 ± 0.063.
